Measurements taken from patent publication US20140087995A1 (published 2014).
Numbered stars: 1 amine (or outer) side, 2 acyl side, 3 side chain; on linkers, the order of the positions; unused ones are H or OH. Bridge positions count the residues as written; N and C are the ends. Side chains are listed from the residue outwards. Ends that are not written are not given here. * marks the point of attachment. C20 diacid = O=C(O)CCCCCCCCCCCCCCCCCCC(=O)*; γGlu = O=C(O)[C@H](CCC(=O)[*:2])N[*:1]

T1: human calcitonin receptor (human, UniProt P30988 25-474)
T1 construct: whole, on cells; Membranes in a scintillation proximity assay (Assay VII); also called hCTR; hCT
T1 sequence (looked up): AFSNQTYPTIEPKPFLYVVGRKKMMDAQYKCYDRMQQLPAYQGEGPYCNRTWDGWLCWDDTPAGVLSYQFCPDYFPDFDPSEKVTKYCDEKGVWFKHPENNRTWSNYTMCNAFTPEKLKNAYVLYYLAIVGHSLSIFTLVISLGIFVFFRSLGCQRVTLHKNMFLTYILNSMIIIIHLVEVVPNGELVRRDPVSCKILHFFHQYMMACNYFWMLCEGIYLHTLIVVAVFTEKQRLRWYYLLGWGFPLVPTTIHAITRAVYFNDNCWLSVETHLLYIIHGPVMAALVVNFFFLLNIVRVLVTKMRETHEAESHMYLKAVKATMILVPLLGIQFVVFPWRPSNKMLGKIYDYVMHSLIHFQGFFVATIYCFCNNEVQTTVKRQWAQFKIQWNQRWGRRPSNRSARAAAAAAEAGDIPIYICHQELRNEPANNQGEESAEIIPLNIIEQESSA


Assays:
[1] = molecular target: T1, human calcitonin receptor; assay: ratio of IC50 at human calcitonin receptor to IC50 at human amylin receptor (reference), SPA binding assays
Experimental: The resulting pellet was resuspended, homogenized and centrifuged (20.000 rpm, 15 min) in a buffer containing 20 mM Na-HEPES and 0.1 mM EDTA (pH 7.4, buffer 2). The resulting pellet was resuspended in buffer 2 and protein concentration was measured (BCA protein Assay, Pierce). The homogenate was kept cold during the whole procedure. The membranes were kept at −80° C. until use. The assay was performed in a 384 well Optiplate (PerkinElmer) in a total volume of 40 ul. Membranes were mixed with SPA beads. Final concentration of membranes 35 ng/μL final and SPA beads was 0.05 mg/well. Test-compounds were dissolved in DMSO and further diluted in assay buffer (50 mM Hepes, pH 7.4, 1 mM CaCl2, 5 mM MgCl₂, 0.1% OA and 0.02% Tween20). […] The final mixture was incubated with shaking at 400 rpm for 120 min at 25° C. prior to centrifugation (1500 rpm, 10 min). Samples were analyzed on TopCounter™ (Packard). The IC₅₀ was calculated using (one site binding competition analysis) GraphPad Prism5 as a measure of receptor affinity.
Membranes were prepared in the following way; the cells were rinsed with PBS and incubated with Versene for approximately 5 min before harvesting. The cells were flushed with PBS and the cell-suspension was centrifuged for 5 min at 1000 rpm. Cells were homogenized (Ultrathurrax) in a buffer containing 20 mM Na-HEPES and 10 mM EDTA (pH 7.4) and centrifuged at 20.000 rpm for 15 min. The resulting pellet was resuspended, homogenized and centrifuged (20.000 rpm, 15 min) in a buffer containing 20 mM Na-HEPES and 0.1 mM EDTA (pH 7.4, buffer 2). The resulting pellet was resuspended in buffer 2 and protein concentration was measured (BCA protein Assay, Pierce). The homogenate was kept cold during the whole procedure. The membranes were kept at −80° C. until use. Assay was performed in a 384 well Optiplate (PerkinElmer) in a total volume of 40 ul. Membranes were mixed with SPA beads.

[2] = molecular target: T1, human calcitonin receptor; assay: SPA competition binding, displacement of 125I-calcitonin from membranes with human calcitonin receptor (Assay VII)
Experimental: Membranes were prepared in the following way; the cells were rinsed with PBS and incubated with Versene for approximately 5 min before harvesting. The cells were flushed with PBS and the cell-suspension was centrifuged for 5 min at 1000 rpm. Cells were homogenized (Ultrathurrax) in a buffer containing 20 mM Na-HEPES and 10 mM EDTA (pH 7.4) and centrifuged at 20.000 rpm for 15 min. The resulting pellet was resuspended, homogenized and centrifuged (20.000 rpm, 15 min) in a buffer containing 20 mM Na-HEPES and 0.1 mM EDTA (pH 7.4, buffer 2). The resulting pellet was resuspended in buffer 2 and protein concentration was measured (BCA protein Assay, Pierce). The homogenate was kept cold during the whole procedure. The membranes were kept at −80° C. until use. Assay was performed in a 384 well Optiplate (PerkinElmer) in a total volume of 40 ul. Membranes were mixed with SPA beads. Final concentration of membranes 35 ng/μL final and Final concentration of SPA beads was 0.05 mg/well. Test-compounds were dissolved in DMSO and further diluted in assay buffer (50 mM Hepes, pH 7.4, 1 mM CaCl2, 5 mM MgCl₂, 0.1% OA and 0.02% Tween20). […] The final mixture was incubated for 120 min with shaking at 400 rpm at 25° C. prior to centrifugation (1500 rpm, 10 min). Samples were analyzed on TopCounter™ (Packard). The […] was calculated using (one site binding competition analysis) GraphPad Prism5 as a measure of receptor affinity.

Ratio hCT/hAmylin binding [1] | IC50 [2] [nM] | Binder
151 | 42.5 | K([γGlu-C20 diacid])CNTATCATQRLADFLRHSSPNFGAIPSSTNVGPRTY-NH2 (disulfide 2-7 (inferred))
16.7 | 3.27 | K([γGlu-C20 diacid])CNTATCATQRLADFLRHSSPNFGAIPSSTNVGPETY-NH2 (disulfide 2-7 (inferred))
27.3 | 10.3 | K([γGlu-γGlu-C20 diacid])CNTATCATQRLAEFLRHSSPNFGAIPSSTNVGPHTY-NH2 (disulfide 2-7 (inferred))
18 | 2.73 | K([γGlu-γGlu-C20 diacid])CNTATCATQRLAEFLRHSSPNFGAIPSSTNVGPNTF-NH2 (disulfide 2-7 (inferred))
